According to US20200079833A1 (AstraZeneca / MedImmune, published 2020):
Starred links: 1 amine or outer side, 2 acyl side, 3 side chain; linkers in the order of their positions; H or OH if unused. Non-standard residues stand in square brackets, D forms with d. Groups on a side chain read outwards from the residue. Primed or numbered codes have the meaning given here. No end group written: not given here. *: point of attachment. γGlu = O=C(O)[C@H](CCC(=O)[*:2])N[*:1]; Stearoyl = CCCCCCCCCCCCCCCCCC(=O)*; αMeF = C[C@](N)(Cc1ccccc1)C(=O)O; αMeK = C[C@](N)(CCCCN)C(=O)O; αMeS = C[C@](N)(CO)C(=O)O; PEG2′ = not defined here; Aib = CC(C)(N)C(=O)O

T1: GLP-1R (INS1e assay) (UniProt P32301 22-463, limits assumed)
T1 sequence (looked up): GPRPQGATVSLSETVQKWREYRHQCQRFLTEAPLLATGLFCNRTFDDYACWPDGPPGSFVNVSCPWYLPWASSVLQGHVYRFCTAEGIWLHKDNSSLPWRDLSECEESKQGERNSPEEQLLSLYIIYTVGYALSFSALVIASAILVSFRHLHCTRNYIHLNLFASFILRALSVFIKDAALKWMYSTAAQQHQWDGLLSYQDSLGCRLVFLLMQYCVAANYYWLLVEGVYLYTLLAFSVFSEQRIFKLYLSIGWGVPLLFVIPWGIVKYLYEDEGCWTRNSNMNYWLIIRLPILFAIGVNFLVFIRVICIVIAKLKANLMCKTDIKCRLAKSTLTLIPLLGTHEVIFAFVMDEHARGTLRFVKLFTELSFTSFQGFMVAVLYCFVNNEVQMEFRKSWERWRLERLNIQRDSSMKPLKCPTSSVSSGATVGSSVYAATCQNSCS


Biological target: T1, GLP-1R (INS1e assay)
Assay: cell-based or functional assay

INS1e assay EC50 GLP-1 R n1 [nM]	INS1e assay EC50 GLP-1 R n2 [nM]	INS1e assay EC50 Mean pM GLP-1R [pM]	Binder
2.69	4.87	3780	H[Aib]EGS[αMeF]TSDV[αMeS]S[αMeF]LEGEAA[αMeK]EFIK([PEG2′-PEG2′-γGlu-Stearoyl])WVVEGG-NH2 [SEQ ID NO 68]
6.15	18.1	12100	H[Aib]EGS[αMeF]TSDV[αMeS]S[αMeF]LEGEAA[Aib]EFIK([PEG2′-PEG2′-γGlu-Stearoyl])WVVEGG-NH2 [SEQ ID NO 67]
0.209	0.0837	146	H[Aib]EGS[αMeF]TSDVSK([PEG2′-PEG2′-PEG2′-Stearoyl])YLEGEAAEE[αMeF]IA[αMeF]VVEGG-NH2 [SEQ ID NO 62]
0.00557	0.0135	10	H[Aib]EGS[αMeF]TSDVSK([PEG2′-PEG2′-PEG2′-Stearoyl])YLEGEAAKE[αMeF]IA[αMeF]VVEGG-NH2 [SEQ ID NO 61]
14.3	12.1	13200	H[Aib]EGS[αMeF]TSDVSK([PEG2′-PEG2′-γGlu-Stearoyl])YLEGEAA[αMeK]E[αMeF]IA[αMeF]VVEGG-NH2 [SEQ ID NO 60]
0.0231	0.0392	31	H[Aib]EGS[αMeF]TSDVSK([PEG2′-PEG2′-PEG2′-Stearoyl])YLEGEAA[Aib]E[αMeF]IA[αMeF]VVEGG-NH2 [SEQ ID NO 63]
19.2	25	22100	H[Aib]EGS[αMeF]TSDV[αMeS]S[αMeF]LEGEAAAEFIK([PEG2′-PEG2′-γGlu-Stearoyl])WVVEGG-NH2 [SEQ ID NO 69]
45.6	38.8	42200	H[Aib]EGS[αMeF]TSDV[αMeS]S[αMeF]LEGEAAEEFIK([PEG2′-PEG2′-γGlu-Stearoyl])WVVEGG-NH2 [SEQ ID NO 66]
2.57	3.74	3160	H[Aib]EGS[αMeF]TSDV[αMeS]S[αMeF]LEGEAAKEFIK([PEG2′-PEG2′-γGlu-Stearoyl])WVVEGG-NH2 [SEQ ID NO 65]
0.0068	0.0121	9	H[Aib]EGS[αMeF]TSDVSK([PEG2′-PEG2′-PEG2′-Stearoyl])YLEGEAA[αMeK]E[αMeF]IA[αMeF]VVEGG-NH2 [SEQ ID NO 64]

Second part, the binder before the results:

Binder	INS1e assay EC50 GLP-1 R n1 [nM]	INS1e assay EC50 GLP-1 R n2 [nM]	INS1e assay EC50 Mean pM GLP-1R [pM]
H[Aib]EGS[αMeF]TSDV[αMeS]S[αMeF]LEGEAAK([PEG2′-PEG2′-γGlu-Stearoyl])EFIA[αMeF]VV[αMeK]GG-NH2 [SEQ ID NO 48]	0.729	0.871	800
H[Aib]EGS[αMeF]TSDVSS[αMeF]LEGEAAK([PEG2′-PEG2′-PEG2′-Stearoyl])E[αMeF]IA[αMeF]VV[αMeK]GG-NH2 [SEQ ID NO 52]	0.0214	0.0193	20
H[Aib]EGSFTSDV[αMeS]S[αMeF]LEGEAAK([PEG2′-PEG2′-γGlu-Stearoyl])E[αMeF]IA[αMeF]VV[αMeK]GG-NH2 [SEQ ID NO 45]	76.1	113	94600
H[Aib]EGS[αMeF]TSDV[αMeS]S[αMeF]LEGEAAK([PEG2′-PEG2′-γGlu-Stearoyl])E[αMeF]IAWVV[αMeK]GG-NH2 [SEQ ID NO 49]	9.35	10.7	10000
H[Aib]EGS[αMeF]TSDV[αMeS]S[αMeF]LEGEAAK([PEG2′-PEG2′-PEG2′-Stearoyl])E[αMeF]IAWVV[αMeK]GG-NH2 [SEQ ID NO 55]	0.0125	0.0101	11
H[Aib]EGS[αMeF]TSDV[αMeS]SYLEGEAAK([PEG2′-PEG2′-γGlu-Stearoyl])E[αMeF]IA[αMeF]VV[αMeK]GG-NH2 [SEQ ID NO 47]	7.13	12.2	9660
H[Aib]EGS[αMeF]TSDVSS[αMeF]LEGEAAK([PEG2′-PEG2′-γGlu-Stearoyl])E[αMeF]IA[αMeF]VV[αMeK]GG-NH2 [SEQ ID NO 46]	52.6	83.4	68000
H[Aib]EGS[αMeF]TSDV[αMeS]SYLEGEAAK([PEG2′-PEG2′-PEG2′-Stearoyl])E[αMeF]IA[αMeF]VV[αMeK]GG-NH2 [SEQ ID NO 53]	0.00625	0.00815	7
H[Aib]EGS[αMeF]TSDV[αMeS]S[αMeF]LEGEAAK([PEG2′-PEG2′-PEG2′-Stearoyl])EFIA[αMeF]VV[αMeK]GG-NH2 [SEQ ID NO 54]	0.00267	0.00837	6
H[Aib]EGS[αMeF]TSDV[αMeS]S[αMeF]LEGEAAK([PEG2′-PEG2′-γGlu-Stearoyl])E[αMeF]IA[αMeF]VVKGG-NH2 [SEQ ID NO 50]	22.1	42.6	32400
H[Aib]EGS[αMeF]TSDV[αMeS]S[αMeF]LEGEAAK([PEG2′-PEG2′-PEG2′-Stearoyl])E[αMeF]IA[αMeF]VVKGG-NH2 [SEQ ID NO 56]	0.0352	0.077	56
H[Aib]EGS[αMeF]TSDV[αMeS]S[αMeF]LEGEAAEE[αMeF]IA[αMeF]VVEGG-NH2 (N-terminus assumed; SMILES CC[C@H](C)[C@H](NC(=O)[C@](C)(Cc1ccccc1)NC(=O)[C@H](CCC(=O)O)NC(=O)[C@H](CCC(=O)O)NC(=O)[C@H](C)NC(=O)[C@H](C)NC(=O)[C@H](CCC(=O)O)NC(=O)CNC(=O)[C@H](CCC(=O)O)NC(=O)[C@H](CC(C)C)NC(=O)[C@](C)(Cc1ccccc1)NC(=O)[C@H](CO)NC(=O)[C@](C)(CO)NC(=O)[C@@H](NC(=O)[C@H](CC(=O)O)NC(=O)[C@H](CO)NC(=O)[C@@H](NC(=O)[C@](C)(Cc1ccccc1)NC(=O)[C@H](CO)NC(=O)CNC(=O)[C@H](CCC(=O)O)NC(=O)C(C)(C)NC(=O)[C@@H](N)Cc1c[nH]cn1)[C@@H](C)O)C(C)C)C(=O)N[C@@H](C)C(=O)N[C@@](C)(Cc1ccccc1)C(=O)N[C@H](C(=O)N[C@H](C(=O)N[C@@H](CCC(=O)O)C(=O)NCC(=O)NCC(N)=O)C(C)C)C(C)C) [SEQ ID NO 44]	0.475	0.435	455
H[Aib]EGS[αMeF]TSDV[αMeS]S[αMeF]LEGEAA[αMeK]E[αMeF]IA[αMeF]VVEGG-NH2 (N-terminus assumed; SMILES CC[C@H](C)[C@H](NC(=O)[C@](C)(Cc1ccccc1)NC(=O)[C@H](CCC(=O)O)NC(=O)[C@](C)(CCCCN)NC(=O)[C@H](C)NC(=O)[C@H](C)NC(=O)[C@H](CCC(=O)O)NC(=O)CNC(=O)[C@H](CCC(=O)O)NC(=O)[C@H](CC(C)C)NC(=O)[C@](C)(Cc1ccccc1)NC(=O)[C@H](CO)NC(=O)[C@](C)(CO)NC(=O)[C@@H](NC(=O)[C@H](CC(=O)O)NC(=O)[C@H](CO)NC(=O)[C@@H](NC(=O)[C@](C)(Cc1ccccc1)NC(=O)[C@H](CO)NC(=O)CNC(=O)[C@H](CCC(=O)O)NC(=O)C(C)(C)NC(=O)[C@@H](N)Cc1c[nH]cn1)[C@@H](C)O)C(C)C)C(=O)N[C@@H](C)C(=O)N[C@@](C)(Cc1ccccc1)C(=O)N[C@H](C(=O)N[C@H](C(=O)N[C@@H](CCC(=O)O)C(=O)NCC(=O)NCC(N)=O)C(C)C)C(C)C) [SEQ ID NO 43]	0.016	0.0105	13
H[Aib]EGSFTSDV[αMeS]S[αMeF]LEGEAAK([PEG2′-PEG2′-PEG2′-Stearoyl])E[αMeF]IA[αMeF]VV[αMeK]GG-NH2 [SEQ ID NO 51]	0.0247	0.0207	23
